Laboratory results: PMC8596624

Columns and labels:
[1] = biological target: T1, WHTS, trimeric spike protein, wild-type (Wuhan) (SARS-CoV-2 (Wuhan), UniProt P0DTC2 14-1213); experiment: dot blot
[2] = biological target: T1, WHTS, trimeric spike protein, wild-type …; experiment: electrochemical impedance
[3] = biological target: WH-S1, spike S1 subunit, wild-type (SARS-CoV-2 (Wuhan), UniProt P0DTC2 14-685); experiment: dot blot
[4] = biological target: T1, WHTS, trimeric spike protein, wild-type …; experiment: electrochemical impedance; remark: listed apart in the source
[5] = biological target: T1, WHTS, trimeric spike protein, wild-type …; experiment: electrochemical impedance; remark: listed apart in the source

## GCGTTCGGAGTGGGTCGTGCGGCGCGGGACGAGTGGTGT (ssDNA) [M5C]
[1]
  binding result: no binding

B1: DSA1N5-SH (structured_DNA)
DNA: TTCCGGTTAATTTATGCTCTACCCGTCCACCTACCGGAATTTTTTTTTTTTTTTTTTTTTTTTTTTTTTACGGGTTTGGCGTCGGGCCTGGCGGGGGGATAGTGCGGTTTTT
modifications: 3' thiol (3ThioMC3-D)
[2]
  binding result: binds

B2: DMC (ssDNA)
DNA: CTATATCCCTTTAAGCCTGTGGGTCCACGAATCTACCTCTTTTTTTTTTTTTTTTTTTTTTTTTTTTTTGCGTTCGGAGTGGGTCGTGCGGCGCGGGACGAGTGGTGT
[1]
  binding result: no binding

B3: MSA1 (structured_DNA)
DNA: TTACGTCAAGGTGTCACTCCCACTTTCCGGTTAATTTATGCTCTACCCGTCCACCTACCGGAAGCATCTCTTTGGCGTG
[3]
  binding result: binds

B4: MSA5 (structured_DNA)
DNA: TTACGTCAAGGTGTCACTCCACGGGTTTGGCGTCGGGCCTGGCGGGGGGATAGTGCGGTGGAAGCATCTCTTTGGCGTG
[3]
  binding result: binds

## TTCCGGTTAATTTATGCTCTACCCGTCCACCTACCGGAA (structured_DNA) [MSA1T]
[1]
  Kd: 11.9 ± 1.8 nM

## ACGGGTTTGGCGTCGGGCCTGGCGGGGGGATAGTGCGGTTTTT (structured_DNA, 3' thiol (3ThioMC3-D)) [MSA5T-SH]
[4]
  binding result: binds

## TTCCGGTTAATTTATGCTCTACCCGTCCACCTACCGGAATTTT (structured_DNA, 3' thiol (3ThioMC3-D)) [MSA1T-SH]
[5]
  binding result: binds

## CTATATCCCTTTAAGCCTGTGGGTCCACGAATCTACCTC (ssDNA) [M1C]
[1]
  binding result: no binding
